From patent US7488573B2, “In vivo angiogenesis assay” (Children's Hospital Medical Center, priority 2002, dated 2009)

System: PM vascular system
Test: In vivo pupillary membrane (PM) angiogenesis assay in rat pups, transcorneal injection
Set-up: species or system Sprague-Dawley rat
Conditions: after 24 hours
Description: A Sprague-Dawley rat pup, available from Taconic Farms (German Town, N.Y.), aged postconception (p.c.) day 30.5 to p.c. 34.5, was subdued with metaphane and subsequently anaesthetized with an intramuscular injection of ketamine and xylazine at 1.6 mg/g and […] respectively. The depth of anesthesia was monitored by paw pinch response and where necessary, the subject pup was maintained under anesthesia with additional doses of ketamine and xylazine intraperitoneally. The right eyelid of the rat pup was parted at the suture using a microdissecting vanna (Storz, St Louis), the eyeball gently raised, and the eyelids folded underneath to permit illumination of the eye with optic fibre light guides. The local anesthetic tetracaine hydrochloride (0.5%) was applied to the eyeball prior to parting of the eyelids. The rat pup was then placed in a silastic body mold designed to reduce movement, and kept warm with an overlaid heating element from a battery powered boot warmer (L. L. Bean, Maine). The liquid phase for the water immersion microscope objective was provided by addition of a bead of phosphate-buffered saline between the eyeball and the objective. Capillaries of the pupillary membrane were readily detected by searching through the focal axis. An eye holder as shown in FIG. 1 held the eyeball to limit movement, and to illuminate the interior of the eye.
A 5× air objective of a Zeiss Axiophot microscope (Zeiss, Thornwood, N.Y.) was positioned above the cornea of an anaesthetized rat. A beveled glass needle mounted on a micromanipulator was axially apposed to the eye holder and in this position could penetrate the cornea for delivery of the test substance directly onto the pupillary membrane.
A defined volume of a test substance was delivered to the anterior chamber using a Nanoject Variable injector (Drummond, Pa.).
After the predetermined period of angiogenic progress, the rat pup was humanely sacrificed. The treated PM was prepared as a whole mount specimen by dissecting the retina, sclera, choroid and cornea away from the lens, iris diaphragm, hyaloid vessels and pupillary membrane. The latter tissue group was then fixed overnight in 2% glutaraldehyde in 0.1 M cacodylate pH 7.4, 0.1 M sucrose. After fixation, the tissue was washed in buffer alone and dehydrated in an ethanol series (50%, 70%, 80%, 90%, 95% and 100%). The specimens where then treated for 1 hour in hexamethyldisilazane (Polysciences Inc. Pennsylvania) and then air dried overnight. After drying, they were mounted and sputter coated with approximately 100 angstroms of gold-palladium. Specimens were visualized using a JOEL SEM 840 scanning electron microscope.
The angiogenic effect on the cellular/vascular PM system was observed and recorded with imaging and recording means. […]

B1: Ang2: biotinylated recombinant human Ang2, available from Calbiochem (protein, UniProt O15123 19-496, looked up)
Angiopoietin-2: YNNFRKSMDSIGKKQYQVQHGSCSYTFLLPEMDNCRSSSSPYVSNAVQRDAPLEYDDSVQRLQVLENIMENNTQWLMKLENYIQDNMKKEMVEIQQNAVQNQTAVMIEIGTNLLNQTAEQTRKLTDVEAQVLNQTTRLELQLLEHSLSTNKLEKQILDQTSEINKLQDKNSFLEKKVLAMEDKHIIQLQSIKEEKDQLQVLVSKQNSIIEELEKKIVTATVNNSVLQKQQHDLMETVNNLLTMMSTSNSAKDPTVAKEEQISFRDCAEVFKSGHTTNGIYTLTFPNSTEEIKAYCDMEAGGGGWTIIQRREDGSVDFQRTWKEYKVGFGNPSGEYWLGNEFVSQLTNQQRYVLKIHLKDWEGNEAYSLYEHFYLSSEELNYRIHLKGLTGTAGKISSISQPGNDFSTKDGDNDKCICKCSQMLTGGWWFDACGPSNLNGMYYPQRQNTNKFNGIKWYYWKGSGYSLKATTMMIRPADF
modifications: biotin
notes: biotinylated recombinant human Ang2, available from Calbiochem
Rat pups A5, Ang2 10 nanograms/ml anterior chamber, compared to the control
  increase in the width of flattened vessels present in the whole mount preparations: 2.1 fold
Rat pups A5, Ang2 10 nanograms/ml anterior chamber, control showed no staining
  staining by HU177 antibody (collagen remodeling of the basal lamina of the PM): significant staining
Rat pups A5, injection into anterior chamber (VEGF 1 nanogram/ml; Ang2 10 nanograms/ml), compared to the control (un-injected eye)
  number of mitotic cells in the PM blood vessels: significant increase
Rat pups A5, injection into anterior chamber (VEGF 1 nanogram/ml; Ang2 10 nanograms/ml; anti-Tie2 50 nanograms/ml), compared to the control
  diameter of capillary vessels: dramatic increase
